Experimental data taken from paper doi:10.1101/2021.05.23.445348.
pKd: −log10 of the molar value.

Legend:
Test in all cases: ITC
[1] = target: SARS-CoV-2 RBD Y453F (SARS-CoV-2) (UniProt P0DTC2)
[2] = target: SARS-CoV-2 RBD T478I (SARS-CoV-2) (UniProt P0DTC2)
[3] = target: SARS-CoV-2 RBD K417N (SARS-CoV-2) (UniProt P0DTC2)

“CC12.1 single chain variable fragment (scFv)” was tested. Which pKd [1] did it give?
The pKd was 6.08.

What about the pKd [2] of the same substance?
The pKd was 8.24.

What about the pKd [3] of the same substance?
Its pKd is 6.92.
